Source: paper PMC5399293, “Hierarchical assembly of centriole subdistal appendages via centrosome binding proteins CCDC120 and CCDC68” (Nature Communications, 2017)

Biological target: T1, MBP-hNinein-N (1–480 aa) (human, UniProt Q8N4C6 1-480)
T1 construct: human Ninein residues 1-480; also called purified 1–480 aa of hNinein
T1 sequence (looked up): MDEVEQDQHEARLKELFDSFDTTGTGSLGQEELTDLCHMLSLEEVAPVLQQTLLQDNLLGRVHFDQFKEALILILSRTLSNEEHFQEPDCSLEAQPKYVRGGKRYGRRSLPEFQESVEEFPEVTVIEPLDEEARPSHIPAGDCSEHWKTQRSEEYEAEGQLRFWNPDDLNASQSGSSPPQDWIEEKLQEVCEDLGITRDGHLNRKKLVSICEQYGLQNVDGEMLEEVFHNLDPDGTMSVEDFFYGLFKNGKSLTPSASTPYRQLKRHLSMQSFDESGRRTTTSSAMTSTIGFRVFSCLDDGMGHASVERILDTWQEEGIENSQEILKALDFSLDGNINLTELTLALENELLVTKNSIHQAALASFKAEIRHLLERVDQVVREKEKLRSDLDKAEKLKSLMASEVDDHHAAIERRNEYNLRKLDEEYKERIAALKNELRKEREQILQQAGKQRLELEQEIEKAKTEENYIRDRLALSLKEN
Assay: pull-down; in vitro binding: purified GST-CCDC120 (1–320 aa) incubated with amylose resin beads coated with MBP fusions, 4 °C; immunoblot with anti-GST
Conditions: both partners purified

B1: GST-tagged CCDC120 (1–320 aa) (domain or fragment, human, UniProt Q96HB5-1 1-320, looked up)
chain: MEVKGQLISSPTFNAPAALFGEAAPQVKSERLRGLLDRQRTLQEALSLKLQELRKVCLQEAELTGQLPPECPLEPGERPQLVRRRPPTARAYPPPHPNQAHHSLCPAEELALEALEREVSVQQQIAAAARRLALAPDLSTEQRRRRRQVQADALRRLHELEEQLRDVRARLGLPVLPLPQPLPLSTGSVITTQGVCLGMRLAQLSQEDVVLHSESSSLSESGASHDNEEPHGCFSLAERPSPPKAWDQLRAVSGGSPERRTPWKPPPSDLYGDLKSRRNSVASPTSPTRSLPRSASSFEGRSVPATPVLTRGAGPQLCKP
notes: human CCDC120 (NM_001271836.1) residues 1-320; also called GST-CCDC120 (1–320 aa); 1–320 aa of CCDC120
  binding result: binds
